Article doi:10.1101/2025.01.09.632086 (2025)

What was measured:
Assay in all cases: ITC
IscU I8K = IscU I8K (E. coli, UniProt P0ACD4 1-128, I8K)
IscU R15A = IscU R15A (E. coli, UniProt P0ACD4 1-128, R15A)
IscU Y11A = IscU Y11A (E. coli, UniProt P0ACD4 1-128, Y11A)

B1: HscA (natural protein)
chain: MALLQISEPGLSAAPHQRRLAAGIDLGTTNSLVATVRSGQAETLADHEGRHLLPSVVHYQQQGHSVGYDARTNAALDTANTISSVKRLMGRSLADIQQRYPHLPYQFQASENGLPMIETAAGLLNPVRVSADILKALAARATEALAGELDGVVITVPAYFDDAQRQGTKDAARLAGLHVLRLLNEPTAAAIAYGLDSGQEGVIAVYDLGGGTFDISILRLSRGVFEVLATGGDSALGGDDFDHLLADYIREQAGIPDRSDNRVQRELLDAAIAAKIALSDADSVTVNVAGWQGEISREQFNELIAPLVKRTLLACRRALKDAGVEADEVLEVVMVGGSTRVPLVRERVGEFFGRPPLTSIDPDKVVAIGAAIQADILVGNKPDSEMLLLDVIPLSLGLETMGGLVEKVIPRNTTIPVARAQDFTTFKDGQTAMSIHVMQGERELVQDCRSLARFALRGIPALPAGGAHIRVTFQVDADGLLSVTAMEKSTGVEASIQVKPSYGLTDSEIASMIKDSMSYAEQDVKARMLAEQKVEAARVLESLHGALAADAALLSAAERQVIDDAAAHLSEVAQGDDVDAIEQAIKNVDKQTQDFAARRMDQSVRRALKGHSVDEV
Binder B1 has a Kd (IscU I8K) of 18.2 µM, a Kd (IscU R15A) of 2.4 µM and a Kd (IscU Y11A) of 2.7 µM.
